Reference: patent US20180155451A1 (published 2018)

T1: FcγRIIb (human, UniProt P31994 43-217)
T1 construct: extracellular domain; also called FcgRIIb; 2b; not shown: His tag at the C terminus
T1 sequence (looked up): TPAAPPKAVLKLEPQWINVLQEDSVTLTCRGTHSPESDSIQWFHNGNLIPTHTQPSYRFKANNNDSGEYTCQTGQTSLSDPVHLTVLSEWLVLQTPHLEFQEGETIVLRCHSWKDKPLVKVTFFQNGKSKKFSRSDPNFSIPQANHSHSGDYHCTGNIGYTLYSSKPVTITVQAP

T2: FcγRIIb extracellular domain with C-terminal His tag (human, UniProt P31994 43-217)
T2 construct: extracellular domain; soluble receptor expressed in FreeStyle293 cells, used as analyte in Biacore; also called FcgRIIb; 2b; not shown: His tag attached to the C terminus
T2 sequence (looked up): T1 sequence (looked up)

B1: GpH7-A5/GpH7-B3 variant Q295_09D/GpL16-k0 (antibody, human IgG1, kappa)
heavy 1: not shown
heavy 2: not shown
light: DIVMTQSPLSLPVTPGEPASISCQASESLVHSNRNTYLHWYLQKPGQSPQLLIYKVSNRFSGVPDRFSGSGSGTDFTLKISRVEAEDVGVYYCSQNTHVPPTFGQGTKVEIERTVAAPSVFIFPPSDEQLKSGTASVVCLLNNFYPREAKVQWKVDNALQSGNSQESVTEQDSKDSTYSLSSTLTLSKADYEKHKVYACEVTHQGLSSPVTKSFNRGEC
notes: He Ab: mutation only in the GpH7-B3 H chain; EU numbering; also called He Ab
B2: GpH7-A5/GpH7-B3 variant Y296_13S/GpL16-k0 (antibody, human IgG1, kappa)
heavy 1: not shown
heavy 2: not shown
light: B1 light
notes: as for B1
B3: GpH7-A5/GpH7-B3 variant Y296_18N/GpL16-k0 (antibody, human IgG1, kappa)
heavy 1: not shown
heavy 2: not shown
light: B1 light
notes: as for B1
B4: GpH7-A5/GpH7-B3 variant S298_12R/GpL16-k0 (antibody, human IgG1, kappa)
heavy 1: not shown
heavy 2: not shown
light: B1 light
notes: as for B1
B5: GpH7-A5/GpH7-B3 variant Q295_16H/GpL16-k0 (antibody, human IgG1, kappa)
heavy 1: not shown
heavy 2: not shown
light: B1 light
notes: as for B1
B6: GpH7-A5/GpH7-B3 variant Y296_08L/GpL16-k0 (antibody, human IgG1, kappa)
heavy 1: not shown
heavy 2: not shown
light: B1 light
notes: as for B1
B7: GpH7-A5/GpH7-B3 variant Y296_09D/GpL16-k0 (antibody, human IgG1, kappa)
heavy 1: not shown
heavy 2: not shown
light: B1 light
notes: as for B1
B8: GpH7-A5/GpH7-B3 variant Y296_06M/GpL16-k0 (antibody, human IgG1, kappa)
heavy 1: not shown
heavy 2: not shown
light: B1 light
notes: as for B1
B9: GpH7-A5/GpH7-B3 variant Q295_11K/GpL16-k0 (antibody, human IgG1, kappa)
heavy 1: not shown
heavy 2: not shown
light: B1 light
notes: as for B1
B10: GpH7-A5/GpH7-B3 variant Y296_04F/GpL16-k0 (antibody, human IgG1, kappa)
heavy 1: not shown
heavy 2: not shown
light: B1 light
notes: as for B1
B11: GpH7-A5/GpH7-B3 variant Y296_07I/GpL16-k0 (antibody, human IgG1, kappa)
heavy 1: not shown
heavy 2: not shown
light: B1 light
notes: as for B1
B12: GpH7-A5/GpH7-B3 variant S298_09D/GpL16-k0 (antibody, human IgG1, kappa)
heavy 1: not shown
heavy 2: not shown
light: B1 light
notes: as for B1
B13: GpH7-A5/GpH7-B3 variant Q295_13S/GpL16-k0 (antibody, human IgG1, kappa)
heavy 1: not shown
heavy 2: not shown
light: B1 light
notes: as for B1
B14: GpH7-A5/GpH7-B3 variant S298_03V/GpL16-k0 (antibody, human IgG1, kappa)
heavy 1: not shown
heavy 2: not shown
light: B1 light
notes: as for B1
B15: GpH7-A5/GpH7-B3 variant S298_02A/GpL16-k0 (antibody, human IgG1, kappa)
heavy 1: not shown
heavy 2: not shown
light: B1 light
notes: as for B1
B16: GpH7-A5/GpH7-B3 variant S298_11K/GpL16-k0 (antibody, human IgG1, kappa)
heavy 1: not shown
heavy 2: not shown
light: B1 light
notes: as for B1
B17: GpH7-A5/GpH7-B3 variant S298_04F/GpL16-k0 (antibody, human IgG1, kappa)
heavy 1: not shown
heavy 2: not shown
light: B1 light
notes: as for B1
B18: GpH7-A5/GpH7-B3 variant S298_01G/GpL16-k0 (antibody, human IgG1, kappa)
heavy 1: not shown
heavy 2: not shown
light: B1 light
notes: as for B1
B19: GpH7-A5/GpH7-B3 variant Y296_12R/GpL16-k0 (antibody, human IgG1, kappa)
heavy 1: not shown
heavy 2: not shown
light: B1 light
notes: as for B1
B20: GpH7-A5/GpH7-B3 variant Y296_19Q/GpL16-k0 (antibody, human IgG1, kappa)
heavy 1: not shown
heavy 2: not shown
light: B1 light
notes: as for B1
B21: GpH7-A5/GpH7-B3 variant S298_14T/GpL16-k0 (antibody, human IgG1, kappa)
heavy 1: not shown
heavy 2: not shown
light: B1 light
notes: as for B1
B22: GpH7-A5/GpH7-B3 variant Q295_14T/GpL16-k0 (antibody, human IgG1, kappa)
heavy 1: not shown
heavy 2: not shown
light: B1 light
notes: as for B1
B23: GpH7-A5/GpH7-B3 variant Y296_16H/GpL16-k0 (antibody, human IgG1, kappa)
heavy 1: not shown
heavy 2: not shown
light: B1 light
notes: as for B1
B24: GpH7-A5/GpH7-B3 variant S298_16H/GpL16-k0 (antibody, human IgG1, kappa)
heavy 1: not shown
heavy 2: not shown
light: B1 light
notes: as for B1
B25: GpH7-A5/GpH7-B3 variant Y296_01G/GpL16-k0 (antibody, human IgG1, kappa)
heavy 1: not shown
heavy 2: not shown
light: B1 light
notes: as for B1
B26: GpH7-A5/GpH7-B3 variant Q295_10E/GpL16-k0 (antibody, human IgG1, kappa)
heavy 1: not shown
heavy 2: not shown
light: B1 light
notes: as for B1
B27: GpH7-A5/GpH7-B3 variant S298_18N/GpL16-k0 (antibody, human IgG1, kappa)
heavy 1: not shown
heavy 2: not shown
light: B1 light
notes: as for B1
B28: GpH7-A5/GpH7-B3 variant Y296_10E/GpL16-k0 (antibody, human IgG1, kappa)
heavy 1: not shown
heavy 2: not shown
light: B1 light
notes: as for B1
B29: GpH7-A5/GpH7-B3 variant S298_15Y/GpL16-k0 (antibody, human IgG1, kappa)
heavy 1: not shown
heavy 2: not shown
light: B1 light
notes: as for B1
B30: GpH7-A5/GpH7-B3 variant Q295_12R/GpL16-k0 (antibody, human IgG1, kappa)
heavy 1: not shown
heavy 2: not shown
light: B1 light
notes: as for B1
B31: GpH7-A5/GpH7-B3 variant S298_07I/GpL16-k0 (antibody, human IgG1, kappa)
heavy 1: not shown
heavy 2: not shown
light: B1 light
notes: as for B1
B32: GpH7-A5/GpH7-B3 variant Y296_03V/GpL16-k0 (antibody, human IgG1, kappa)
heavy 1: not shown
heavy 2: not shown
light: B1 light
notes: as for B1
B33: GpH7-A5/GpH7-B3 variant Q295_18N/GpL16-k0 (antibody, human IgG1, kappa)
heavy 1: not shown
heavy 2: not shown
light: B1 light
notes: as for B1
B34: GpH7-A5/GpH7-B3 variant S298_10E/GpL16-k0 (antibody, human IgG1, kappa)
heavy 1: not shown
heavy 2: not shown
light: B1 light
notes: as for B1
B35: GpH7-A5/GpH7-B3 variant Y296_02A/GpL16-k0 (antibody, human IgG1, kappa)
heavy 1: not shown
heavy 2: not shown
light: B1 light
notes: as for B1
B36: GpH7-A5/GpH7-B3 variant Y296_14T/GpL16-k0 (antibody, human IgG1, kappa)
heavy 1: not shown
heavy 2: not shown
light: B1 light
notes: as for B1
B37: GpH7-A5/GpH7-B3 variant Q295_15Y/GpL16-k0 (antibody, human IgG1, kappa)
heavy 1: not shown
heavy 2: not shown
light: B1 light
notes: as for B1
B38: GpH7-A5/GpH7-B3 variant Y296_11K/GpL16-k0 (antibody, human IgG1, kappa)
heavy 1: not shown
heavy 2: not shown
light: B1 light
notes: as for B1
B39: GpH7-A5/GpH7-B3 variant D270_01G/GpL16-k0 (antibody, human IgG1, kappa)
heavy 1: not shown
heavy 2: not shown
light: B1 light
notes: heterodimerized anti-glypican-3 IgG1; alteration in the GpH7-B3 chain only; also called He Ab
B40: GpH7-A5/GpH7-B3 variant A327_06M/GpL16-k0 (antibody, human IgG1, kappa)
heavy 1: not shown
heavy 2: not shown
light: B1 light
notes: as for B39
B41: GpH7-A5/GpH7-B3 variant A327_03V/GpL16-k0 (antibody, human IgG1, kappa)
heavy 1: not shown
heavy 2: not shown
light: B1 light
notes: as for B39

Biological target: T3, FcγRIa (human, UniProt P12314 16-292)
T3 construct: extracellular domain; also called FcgRI; 1a; not shown: His tag at the C terminus
T3 sequence (P12314 16-292): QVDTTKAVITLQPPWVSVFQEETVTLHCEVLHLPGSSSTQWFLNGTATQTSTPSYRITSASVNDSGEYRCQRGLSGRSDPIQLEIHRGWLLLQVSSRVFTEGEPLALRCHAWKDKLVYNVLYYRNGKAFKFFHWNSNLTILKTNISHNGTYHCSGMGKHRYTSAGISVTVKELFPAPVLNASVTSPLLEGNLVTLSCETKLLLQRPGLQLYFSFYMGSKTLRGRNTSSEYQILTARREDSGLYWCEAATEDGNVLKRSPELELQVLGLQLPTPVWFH
Assay: SPR (Biacore), captured antibody, soluble FcγR; relative to GpH7-A5/GpH7-B3/GpL16-k0

Binder	He/Con_1a
B1	100 relative, HeCon Ab = 100
B2	105 relative, HeCon Ab = 100
B3	106 relative, HeCon Ab = 100
B4	109 relative, HeCon Ab = 100
B5	102 relative, HeCon Ab = 100
B6	104 relative, HeCon Ab = 100
B7	106 relative, HeCon Ab = 100
B8	104 relative, HeCon Ab = 100
B9	101 relative, HeCon Ab = 100
B10	104 relative, HeCon Ab = 100
B11	104 relative, HeCon Ab = 100
B12	106 relative, HeCon Ab = 100
B13	102 relative, HeCon Ab = 100
B14	110 relative, HeCon Ab = 100
B15	107 relative, HeCon Ab = 100
B16	109 relative, HeCon Ab = 100
B17	109 relative, HeCon Ab = 100
B18	104 relative, HeCon Ab = 100
B19	106 relative, HeCon Ab = 100

Binder	He/Con_1a
B20	112 relative, HeCon Ab = 100
B21	107 relative, HeCon Ab = 100
B22	103 relative, HeCon Ab = 100
B23	106 relative, HeCon Ab = 100
B24	109 relative, HeCon Ab = 100
B25	103 relative, HeCon Ab = 100
B26	103 relative, HeCon Ab = 100
B27	108 relative, HeCon Ab = 100
B28	106 relative, HeCon Ab = 100
B29	107 relative, HeCon Ab = 100
B30	100 relative, HeCon Ab = 100
B31	107 relative, HeCon Ab = 100
B32	104 relative, HeCon Ab = 100
B33	102 relative, HeCon Ab = 100
B34	108 relative, HeCon Ab = 100
B35	103 relative, HeCon Ab = 100
B36	105 relative, HeCon Ab = 100
B37	102 relative, HeCon Ab = 100
B38	105 relative, HeCon Ab = 100

Biological target: T1, FcγRIIb
Assay: as above

Binder	He/Con_2b
B1	60.8 relative, HeCon Ab = 100
B2	86.3 relative, HeCon Ab = 100
B3	91.5 relative, HeCon Ab = 100
B4	57.8 relative, HeCon Ab = 100
B5	62.7 relative, HeCon Ab = 100
B6	82.3 relative, HeCon Ab = 100
B7	98.9 relative, HeCon Ab = 100
B8	87.8 relative, HeCon Ab = 100
B9	70.4 relative, HeCon Ab = 100
B10	99.2 relative, HeCon Ab = 100
B11	84.3 relative, HeCon Ab = 100
B12	48.3 relative, HeCon Ab = 100
B13	56.9 relative, HeCon Ab = 100
B14	64.5 relative, HeCon Ab = 100
B15	73.4 relative, HeCon Ab = 100
B16	61.3 relative, HeCon Ab = 100
B17	65.4 relative, HeCon Ab = 100
B18	80.1 relative, HeCon Ab = 100
B19	79.5 relative, HeCon Ab = 100

Binder	He/Con_2b
B20	89.3 relative, HeCon Ab = 100
B21	77.9 relative, HeCon Ab = 100
B22	66.8 relative, HeCon Ab = 100
B23	92.2 relative, HeCon Ab = 100
B24	63.5 relative, HeCon Ab = 100
B25	79.3 relative, HeCon Ab = 100
B26	94.8 relative, HeCon Ab = 100
B27	48.1 relative, HeCon Ab = 100
B28	98 relative, HeCon Ab = 100
B29	61.4 relative, HeCon Ab = 100
B30	65.2 relative, HeCon Ab = 100
B31	70.6 relative, HeCon Ab = 100
B32	79.3 relative, HeCon Ab = 100
B33	64.9 relative, HeCon Ab = 100
B34	47.6 relative, HeCon Ab = 100
B35	82 relative, HeCon Ab = 100
B36	88.2 relative, HeCon Ab = 100
B37	65.4 relative, HeCon Ab = 100
B38	72.8 relative, HeCon Ab = 100

Biological target: T4, FcγRIa extracellular domain with C-terminal His tag (human, UniProt P12314 16-292)
T4 construct: extracellular domain; soluble receptor expressed in FreeStyle293 cells, used as analyte in Biacore; also called FcgRI; 1a; not shown: His tag attached to the C terminus
T4 sequence (P12314 16-292): as above
Assay: SPR (Biacore), antibody captured on antigen peptide chip, FcγR as analyte; relative binding

Binder	He/Con_1a
B39	76.3 % of control GpH7-A5/GpH7-B3/GpL16-k0 (=100)
B40	103 % of control GpH7-A5/GpH7-B3/GpL16-k0 (=100)
B41	103 % of control GpH7-A5/GpH7-B3/GpL16-k0 (=100)

Biological target: T2, FcγRIIb extracellular domain with …
Assay: as above

Binder	He/Con_2b
B39	30.5 % of control GpH7-A5/GpH7-B3/GpL16-k0 (=100)
B40	59.5 % of control GpH7-A5/GpH7-B3/GpL16-k0 (=100)
B41	94.7 % of control GpH7-A5/GpH7-B3/GpL16-k0 (=100)
